Results on 167 variants are retold here after the RNAGym collection of RNA variant scans (doi:10.7554/elife.80360).

First the molecules themselves.
B1: CPEB3 Ribozyme (parent)
chain: GGGGGCCACAGCAGAAGCGUUCACGUCGCGGCCCCUGUCAGAUUCUGGUGAAUCUGCGAAUUCUGCUGU

The data set covers variants of B1. Put plainly: self-cleavage, relative activity (ratio to wild type); higher = more cleavage; co-transcriptional.
Regarding U43A A60C, the self-cleavage came to 0.281.

Take A42U G56C: the self-cleavage came to 0.326.

As for A42G U46C, the self-cleavage worked out at 0.965.

As to U43A U55G, the self-cleavage turned out to be 0.283.

As for U43A U55C, the self-cleavage stood at 0.289.

As for U46A G56C, the self-cleavage was 0.858.

U46A G56U: the self-cleavage stood at 0.941.

Turning to C45U C54G, the self-cleavage worked out at 0.785.

In the case of C45U C54U, the self-cleavage is 1.01.

Consider A42U G68U, for which the self-cleavage was determined as 0.99.

Turning to A42U G68C, the self-cleavage turned out to be 0.964.

On to A42C U64C, for which the self-cleavage came out at 0.637.

As to U43G G56U, the self-cleavage came out at 0.385.

As to U43A U67G, the self-cleavage came out at 0.889.

In the case of U44G A52C, the self-cleavage was 0.976.

As to U46C A59C, the self-cleavage stood at 0.744.

For U43G G50C, the self-cleavage is 0.864.

In the case of C45U G68A, the self-cleavage came to 1.02.

On to C45G G50U, for which the self-cleavage was found to be 0.961.

C45G U53A: the self-cleavage was determined as 0.921.

With A42G A52G, the self-cleavage turned out to be 0.825.

Take U44G U64A: the self-cleavage was 0.662.

With U43C U49G, the self-cleavage came to 0.949.

With U43C U49A, the self-cleavage came out at 0.988.

For U43G U61G, the self-cleavage is 0.265.

With U43G U61A, the self-cleavage came to 0.701.

U44G G48A: the self-cleavage stood at 0.963.

Take U44G G48U: the self-cleavage was found to be 0.986.

Turning to A42G A51G, the self-cleavage came to 0.894.

For U44G C57A, the self-cleavage came to 0.327.

For the variant U44G C57G, the self-cleavage was 0.335.

As to U44G C57U, the self-cleavage came to 0.23.

In the case of U46C A52U, the self-cleavage was determined as 0.974.

Regarding U44C C45G, the self-cleavage was determined as 1.

U43G U46A: the self-cleavage was determined as 0.959.

Take U43G G48U: the self-cleavage stood at 1.01.

For the variant U43A G68A, the self-cleavage is 0.933.

As for U43G C57U, the self-cleavage turned out to be 0.385.

In the case of U43G C57G, the self-cleavage came to 0.308.

For the variant U43C U69C, the self-cleavage was 1.07.

For the variant U43C U69G, the self-cleavage was determined as 1.03.

With U46A U49C, the self-cleavage came out at 0.666.

As for U46A U49G, the self-cleavage was 0.922.

Regarding C45A A59G, the self-cleavage worked out at 0.971.

Turning to C45G C66U, the self-cleavage amounted to 0.961.

As for C45G C66A, the self-cleavage was 0.767.

Regarding U44A A60G, the self-cleavage is 0.725.

Turning to U43A C66G, the self-cleavage stood at 0.572.

As to U44A C63U, the self-cleavage was determined as 0.985.

For the variant U44A C63G, the self-cleavage was found to be 0.645.

As for U43G U64G, the self-cleavage was 0.649.

In the case of A42U U46G, the self-cleavage came out at 1.01.

For A42U U46A, the self-cleavage was determined as 1.03.

In the case of U44A U55G, the self-cleavage is 0.551.

Take A42U C45U: the self-cleavage amounted to 0.997.

A42U C45A: the self-cleavage was 0.889.

For the variant A42U C45G, the self-cleavage is 0.89.

On to U44C G56A, for which the self-cleavage was determined as 0.7.

As to U44G C66A, the self-cleavage was found to be 0.733.

Regarding A42U A59U, the self-cleavage was found to be 0.677.

In the case of A42U A59C, the self-cleavage was 0.546.

Regarding C45A C57U, the self-cleavage was 0.374.

As for C45A C57A, the self-cleavage was 0.359.

Take U44G U53G: the self-cleavage turned out to be 0.755.

Regarding U43G C63U, the self-cleavage turned out to be 0.751.

Regarding U43G C63A, the self-cleavage was determined as 0.436.

As to C45G G47C, the self-cleavage stood at 1.

Turning to C45G G47U, the self-cleavage was found to be 1.04.

C45A G47A: the self-cleavage was 0.999.

Regarding C45A G47C, the self-cleavage was determined as 0.995.

On to C45A G47U, for which the self-cleavage was found to be 0.986.

For U43A U69C, the self-cleavage turned out to be 1.04.

For U44C C63A, the self-cleavage came to 0.542.

Regarding U44A C45A, the self-cleavage was determined as 0.886.

As for C45A C66A, the self-cleavage turned out to be 0.744.

As for C45A C66U, the self-cleavage stood at 0.919.

As for A42G U61A, the self-cleavage amounted to 0.693.

As to A42G U61C, the self-cleavage amounted to 0.521.

For A42G G56U, the self-cleavage was 0.567.

Regarding A42U C54U, the self-cleavage amounted to 0.81.

U46C A51C: the self-cleavage was found to be 0.99.

For U44C A60C, the self-cleavage was 0.378.

Regarding A42G G68C, the self-cleavage stood at 0.963.

As to A42G G68U, the self-cleavage came to 1.01.

Consider A42G G68A, for which the self-cleavage came out at 0.98.

As for U46A U61A, the self-cleavage worked out at 0.982.

Consider U43C C57U, for which the self-cleavage turned out to be 0.394.

Consider U46A A60U, for which the self-cleavage came to 0.556.

As to C45U G47C, the self-cleavage turned out to be 0.998.

Turning to C45A U53C, the self-cleavage amounted to 0.804.

C45A U53G: the self-cleavage was determined as 0.863.

Consider U43A G48C, for which the self-cleavage was 0.912.

Take A42U U61C: the self-cleavage stood at 0.435.

For the variant A42G G58U, the self-cleavage was 0.978.

Regarding A42G U44G, the self-cleavage was found to be 0.904.

Turning to U44A G56U, the self-cleavage was 0.677.

On to U46A U64C, for which the self-cleavage came to 0.98.

Regarding A42G G48A, the self-cleavage is 0.979.

Turning to C45U U62C, the self-cleavage came out at 0.895.

Turning to C45U U62G, the self-cleavage was 0.847.

For U46C C66U, the self-cleavage was 0.959.

For the variant U43G G47A, the self-cleavage came out at 0.95.

On to U43G G47U, for which the self-cleavage was 0.999.

Regarding A42U U53C, the self-cleavage was 0.935.

On to U46A G50U, for which the self-cleavage is 0.977.

For the variant U46A A59U, the self-cleavage was determined as 0.842.

As to A42G U53C, the self-cleavage was found to be 0.891.

For A42U U64C, the self-cleavage came out at 0.609.

Turning to C45G C63A, the self-cleavage is 0.732.

On to C45G C63G, for which the self-cleavage turned out to be 0.798.

Take U43G U55C: the self-cleavage was 0.312.

Consider U44G A59C, for which the self-cleavage came out at 0.629.

For C45G G65C, the self-cleavage amounted to 0.62.

Turning to C45A U55C, the self-cleavage was 0.516.

Consider A42U U67C, for which the self-cleavage came to 0.947.

As for A42G C54G, the self-cleavage is 0.71.

On to A42G C54A, for which the self-cleavage was found to be 0.708.

As to U43G U53C, the self-cleavage was determined as 0.874.

Consider C45U G58U, for which the self-cleavage turned out to be 1.01.

On to C45U G58A, for which the self-cleavage was 0.972.

With C45U G58C, the self-cleavage was found to be 1.01.

Regarding U43C C66A, the self-cleavage was 0.614.

Turning to C45U G50U, the self-cleavage came out at 0.991.

As for U44A A51G, the self-cleavage came out at 0.936.

For U44A A51C, the self-cleavage turned out to be 0.939.

On to A42U C63G, for which the self-cleavage was 0.533.

On to A42U C63A, for which the self-cleavage came to 0.608.

With U46A C54U, the self-cleavage was determined as 0.973.

Take A42U U43C: the self-cleavage came out at 0.77.

Consider A42U U43G, for which the self-cleavage amounted to 0.735.

Turning to U46A U55G, the self-cleavage worked out at 0.916.

On to U44A U61G, for which the self-cleavage is 0.645.

U44A G50A: the self-cleavage came out at 0.962.

Turning to U43G C66G, the self-cleavage was determined as 0.484.

Turning to U46C G47U, the self-cleavage was determined as 1.02.

In the case of U43G U69A, the self-cleavage was found to be 0.954.

In the case of U43G U69C, the self-cleavage is 1.03.

As for A42C U49C, the self-cleavage is 0.892.

On to A42G U62A, for which the self-cleavage was determined as 0.733.

In the case of A42G U62G, the self-cleavage was 0.709.

Turning to C45A A60G, the self-cleavage was determined as 0.862.

As for C45A A60U, the self-cleavage is 0.424.

Take C45A A60C: the self-cleavage stood at 0.476.

C45G U67G: the self-cleavage came out at 1.01.

Turning to U43C G56U, the self-cleavage stood at 0.638.

For the variant U46A A52G, the self-cleavage is 1.03.

On to U46A A52U, for which the self-cleavage was found to be 0.981.

Turning to C45G G68U, the self-cleavage came to 0.979.

As for A42C U53G, the self-cleavage was 1.04.

With A42C U53C, the self-cleavage was found to be 0.939.

On to U44G U49A, for which the self-cleavage was 0.935.

On to U44G U49C, for which the self-cleavage is 0.901.

In the case of U46A U53G, the self-cleavage amounted to 0.931.

Turning to U46A U53C, the self-cleavage turned out to be 0.971.

For U46A U53A, the self-cleavage is 0.989.

Take A42G C57G: the self-cleavage was determined as 0.276.

On to A42G C57A, for which the self-cleavage came out at 0.306.

In the case of U43C C45G, the self-cleavage turned out to be 0.964.

Regarding U43C C45A, the self-cleavage amounted to 0.961.

On to U43C A51G, for which the self-cleavage is 0.964.

Turning to U43C A51U, the self-cleavage is 0.944.

On to C45U C57U, for which the self-cleavage was found to be 0.317.

As for C45U U46A, the self-cleavage is 0.999.

Consider C45U U46C, for which the self-cleavage came out at 0.975.

For the variant C45U U46G, the self-cleavage is 0.952.

Take A42C U67G: the self-cleavage was 0.919.

With U44G C63G, the self-cleavage was 0.588.
